Test results reported in the supplement of paper PMC10567573.

B1: WEE1 (parent)
chain: INPFTPDSLLLHSSGQCRRRKRTY
B2: SPDEF (parent)
chain: YPEDSSWAAKAPGASSREEPPEEP

Variants of: B1
Experiment: protein stability index of a GFP-peptide fusion (GPS, HEK-293T) (PSI 1-6); higher = more stable
Conditions: c terminus: a fixed tail appended
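Note: lentivirally expressed fusions sorted by FACS into six bins by GFP to DsRed ratio, PSI derived from sequencing read proportions per bin multiplied by bin number.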

Variant	protein stability index
Y24P	3.81
Y24R	4.52
Y24W	3.36
Y24A	4.33
F4V	4.08
F4N	4.08
F4T	4.38
F4G	4.05
F4K	4.27
F4C	3.67
F4W	3.87
F4S	4.18
R19F	2.62
R19M	2.91
R19P	3.03
R19G	3.34
H12G	3.18
H12T	3.45
H12A	3.61
H12I	3.6
P6Y	2.56
P6S	3.61
P6E	3.71
S13K	3.69

Variant	protein stability index
S13Q	3.44
S13T	3.74
R20K	3.23
R20T	3.32
C17E	4.09
C17Y	3.04
C17F	3.06
C17H	3.44
C17P	4.37
C17K	4.12
N2T	3.59
N2R	2.9
N2V	3.39
N2H	3.19
N2G	3.48
D7L	2.73
D7V	2.63
D7M	3.12
D7S	3.14
T5K	3.45
T5M	2.89
T5A	3.93
T5H	3.33
T5I	2.48

Variant	protein stability index
T5P	2.95
G15H	2.72
G15M	2.84
G15Q	3.72
S8K	3.35
S8Y	2.65
S8G	3.44
K21P	3.08
L10P	4.07
L10E	3.41
L10K	3.2
R18E	3.67
R18I	2.86
R18N	3.12
T23H	3.7
T23E	3.37
T23Q	3.42
T23N	3.5
Q16D	3.45
Q16M	2.92
Q16H	3.06
Q16N	4.03
I1H	3.89
I1C	3.17

Variant	protein stability index
I1M	3.33
I1L	3.19
I1D	4.03
S14M	2.42
S14K	2.98
S14P	3.54
P3Y	2.38
P3M	2.99
P3F	2.33
L11D	4.11
L11Y	3.75
L11R	3.38
L11F	3.01
L11S	3.96
L11H	3.47
L11N	3.92
L11M	3.94
R22W	2.27
R22Y	2.87
R22G	3.55
L9A	3.61
L9G	4.28

Variants of: B2
Experiment: as above
Conditions: c terminus: a fixed tail appended

Variant	protein stability index
S5H	3.99
S5E	5.72
S5T	4.55
S5W	3.99
S5F	3.86
S5A	4.69
S5P	4.06
S5M	4.58
S5K	4.49
S5C	3.24
S5V	4.71
S5N	4.16
S5R	4.26
S5Q	4.03
W7A	5.85
W7D	6
P2K	5.1
P2M	5.18
P2R	5.43
P2W	4.68
P2A	1.79
P2F	5.57
P2H	2.25
P2T	2.95
P2N	5.78

Variant	protein stability index
P2G	3.9
P2D	5.73
P2I	2.53
P2C	1.94
S6Y	3.85
S6W	1.27
S6A	3.6
S6F	1.84
S6E	5.03
S6I	2.51
S6T	4.57
S6N	4.9
S6H	4.38
S6V	2.94
D4I	3.25
D4T	2.39
D4N	2.4
D4Q	3.09
D4P	2.09
Y1F	3.03
Y1K	5.73
Y1T	5.68
Y1V	5.76
Y1C	5.04
Y1D	5.97

Variant	protein stability index
Y1N	5.56
Y1L	5.79
Y1S	5.55
Y1M	5.93
Y1H	5.7
E3N	2.49
E3W	2.18
E3T	3.82
E3V	4.09
E3A	2.01
E3K	3.9
E3P	3.15
E3L	4.69
E3S	2.66
E3M	2.49
E3Y	2.37
E3I	4.92
E3G	2.72
E3D	4.24
E3F	2.99
E3H	3.05
E3R	3.78
E3Q	3.24
